Here are results for 5 molecules from patent US20260337278 (published 2026).

The chains are these.
B1: SI-95X20 (antibody)
chain 1: not shown
chain 2: DIQMTQSPSSLSASVGDRVTITCRSSQNIVHSNGNTYLDWYQQTPGKAPKLLIYKVSNRFSGVPSRFSGSGSGTDFTFTISSLQPEDIATYYCFQYSHVPWTFGQGTKLQITRTVAAPSVFIFPPSDEQLKSGTASVVCLLNNFYPREAKVQWKVDNALQSGNSQESVTEQDSKDSTYSLSSTLTLSKADYEKHKVYACEVTHQGLSSPVTKSFNRGEC
B2: SI-95X21 (antibody)
chain 1: not shown
chain 2: B1 chain 2
B3: SI-95X28 (antibody)
chain 1: not shown
chain 2: DILMTQSPSSMSVSLGDTVSITCHSSQDINSNIGWLQQRPGKSFKGLIYHGTNLDDEVPSRFSGSGSGADYSLTISSLESEDFADYYCVQYAQFPWTFGGGTKLEIKGGGGSGGGGSGGGGSDVQLQESGPSLVKPSQSLSLTCTVTGYSITSDFAWNWIRQFPGNKLEWMGYISYSGNTRYNPSLKSRISITRDTSKNQFFLQLNSVTIEDTATYYCVTAGRGFPYWGQGTLVTVSAGGGGSGGGGSGSGSGGGGGSGGGGSGGGGSDIQMTQSPSSLSASVGDRVTITCRSSQNIVHSNGNTYLDWYQQTPGKAPKLLIYKVSNRFSGVPSRFSGSGSGTDFTFTISSLQPEDIATYYCFQYSHVPWTFGQGTKLQITRTVAAPSVFIFPPSDEQLKSGTASVVCLLNNFYPREAKVQWKVDNALQSGNSQESVTEQDSKDSTYSLSSTLTLSKADYEKHKVYACEVTHQGLSSPVTKSFNRGEC
B4: SI-95X23 (antibody)
chain 1: not shown
chain 2: DVQLQESGPSLVKPSQSLSLTCTVTGYSITSDFAWNWIRQFPGNKLEWMGYISYSGNTRYNPSLKSRISITRDTSKNQFFLQLNSVTIEDTATYYCVTAGRGFPYWGQGTLVTVSAGGGGSGGGGSGGGGSDILMTQSPSSMSVSLGDTVSITCHSSQDINSNIGWLQQRPGKSFKGLIYHGTNLDDEVPSRFSGSGSGADYSLTISSLESEDFADYYCVQYAQFPWTFGGGTKLEIKSGSGSGGGGGSGGGGSGGGGSDIQMTQSPSSLSASVGDRVTITCRSSQNIVHSNGNTYLDWYQQTPGKAPKLLIYKVSNRFSGVPSRFSGSGSGTDFTFTISSLQPEDIATYYCFQYSHVPWTFGQGTKLQITRTVAAPSVFIFPPSDEQLKSGTASVVCLLNNFYPREAKVQWKVDNALQSGNSQESVTEQDSKDSTYSLSSTLTLSKADYEKHKVYACEVTHQGLSSPVTKSFNRGEC
B5: SI-95X25 (antibody)
chain 1: not shown
chain 2: DVQLQESGPSLVKPSQSLSLTCTVTGYSITSDFAWNWIRQFPGNKLEWMGYISYSGNTRYNPSLKSRISITRDTSKNQFFLQLNSVTIEDTATYYCVTAGRGFPYWGQGTLVTVSAGGGGSGGGGSGGGGSDILMTQSPSSMSVSLGDTVSITCHSSQDINSNIGWLQQRPGKSFKGLIYHGTNLDDEVPSRFSGSGSGADYSLTISSLESEDFADYYCVQYAQFPWTFGGGTKLEIKGGGGSGGGGSGSGSGGGGGSGGGGSGGGGSDIQMTQSPSSLSASVGDRVTITCRSSQNIVHSNGNTYLDWYQQTPGKAPKLLIYKVSNRFSGVPSRFSGSGSGTDFTFTISSLQPEDIATYYCFQYSHVPWTFGQGTKLQITRTVAAPSVFIFPPSDEQLKSGTASVVCLLNNFYPREAKVQWKVDNALQSGNSQESVTEQDSKDSTYSLSSTLTLSKADYEKHKVYACEVTHQGLSSPVTKSFNRGEC

In one assay the target is EGFRvIII (human, UniProt P00533). Description: BLI. On the technique in general: BLI is a label-free optical method that tracks binding on a fibre tip over time.
B1 displayed a Kd of 0.839 nM. In other words, the sub-nanomolar range.
Turning to B2, binding was characterised by a dissociation constant (Kd) of 0.654 nM.
Regarding B3, binding was characterised by a dissociation constant (Kd) of 0.579 nM. The Kd values of the last two molecules are within 1.5-fold of each other.
The same measure, in the same setting: next, B4: 1.45 nM; B5: 1.21 nM.

A further assay deals with EGFR (wild-type, His-tagged or biotinylated) (human, UniProt P00533). In words: BLI.
The molecule B1 gave a Kd of 4.73 nM.
Molecule B2 returned a Kd of 5.56 nM.
On the same count and under the same terms, to B3 belongs 7.56 nM; to B4, 6.17 nM; to B5, 13.4 nM.

One may read the Kd as the free concentration of one partner at which half of the binding sites on the other are occupied at equilibrium, for simple one-to-one binding.
